Experiments:
[1] = biological target: human CD16A-Fc^48R/158V fusion protein (human) (UniProt P08637); test: SPR, BIAcore 2000, CD16A-Fc immobilized on CM5, 1:1 Langmuir
[2] = biological target: CD16B-Fc^NA2 (human) (UniProt O75015); test: SPR, BIAcore 2000, antigen immobilized, koff/kon
[3] = biological target: human CD16A-Fc^48R/158F fusion protein (human) (UniProt P08637); test: SPR, BIAcore 2000, antigen immobilized, koff/kon
[4] = biological target: CD16B-Fc^SH (human) (UniProt O75015); test: SPR, BIAcore 2000, antigen immobilized, koff/kon
[5] = biological target: CD16B-Fc^NA1 (human) (UniProt O75015); test: SPR, BIAcore 2000, antigen immobilized, koff/kon
[6] = biological target: human CD16A-Fc^48R/158V fusion protein (human) (UniProt P08637); test: SPR, BIAcore 2000, antigen immobilized, koff/kon
[7] = biological target: native CD16A on human peripheral blood NK cells (human) (UniProt P08637); test: cell-based or functional assay
[8] = biological target: CD16B-Fc^NA2 (human) (UniProt O75015); test: SPR, BIAcore 2000, antigen immobilized
[9] = biological target: human CD16A-Fc^48R/158F fusion protein (human) (UniProt P08637); test: SPR, BIAcore 2000, antigen immobilized
[10] = biological target: CD16B-Fc^SH (human) (UniProt O75015); test: SPR, BIAcore 2000, antigen immobilized
[11] = biological target: CD16B-Fc^NA1 (human) (UniProt O75015); test: SPR, BIAcore 2000, antigen immobilized
[12] = biological target: human CD16A-Fc^48R/158V fusion protein (human) (UniProt P08637); test: SPR, BIAcore 2000, antigen immobilized
[13] = biological target: human CD16A-Fc^48R/158V fusion protein (human) (UniProt P08637); test: SPR, BIAcore 2000, CD16A-Fc immobilized on CM5, koff/kon

Chain of human CD16A-Fc^48R/158F fusion protein (human) (P08637 17-208): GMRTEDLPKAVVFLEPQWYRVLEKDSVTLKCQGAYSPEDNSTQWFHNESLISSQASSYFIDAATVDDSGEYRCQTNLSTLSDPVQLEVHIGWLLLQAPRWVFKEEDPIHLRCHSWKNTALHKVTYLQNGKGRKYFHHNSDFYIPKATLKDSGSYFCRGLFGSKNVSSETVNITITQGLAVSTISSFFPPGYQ
Chain of CD16B-Fc^SH (human) (O75015 17-200 N65S/A78D): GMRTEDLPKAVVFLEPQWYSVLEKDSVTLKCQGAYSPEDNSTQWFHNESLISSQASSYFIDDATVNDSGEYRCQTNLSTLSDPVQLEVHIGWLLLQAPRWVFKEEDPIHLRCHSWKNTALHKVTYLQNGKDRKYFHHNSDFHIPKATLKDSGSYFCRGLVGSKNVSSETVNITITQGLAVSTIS
Chain of CD16B-Fc^NA1 (human) (O75015 other isoform, or with tags, fused parts or gaps): as the sequence (O75015 17-200 N65S/A78D) above, with S20R, S49N, D62A, N66D, I90V counted along it
Chain of CD16B-Fc^NA2 (human) (O75015 17-200 N65S): as the sequence (O75015 17-200 N65S/A78D) above, with D62A counted along it
Chain of human CD16A-Fc^48R/158V fusion protein (human) (P08637 17-208 L66R/F176V limits assumed): as the sequence (P08637 17-208) above, with L50R, F160V counted along it
Chain of native CD16A on human peripheral blood NK cells (human) (P08637 17-254): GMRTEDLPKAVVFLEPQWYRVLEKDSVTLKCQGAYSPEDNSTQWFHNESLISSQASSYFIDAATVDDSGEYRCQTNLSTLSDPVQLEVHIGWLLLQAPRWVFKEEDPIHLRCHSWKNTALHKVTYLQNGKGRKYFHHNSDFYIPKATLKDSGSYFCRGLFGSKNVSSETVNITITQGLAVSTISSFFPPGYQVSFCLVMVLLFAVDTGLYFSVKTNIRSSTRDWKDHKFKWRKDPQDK

koff [1]: 0.000177 s⁻¹
kon [1]: 101000 M⁻¹ s⁻¹
Kd [2]: 9.63 nM
Kd [3]: 3.82 nM
Kd [4]: 11.4 nM
Kd [5]: 8.91 nM
Kd [6]: 5.17 nM
lysis of P815 targets by NK cells (calcein release), 1 µg/mL antibody [7]: 65%
koff [8]: 0.000478 s⁻¹
kon [8]: 75700 M⁻¹ s⁻¹
koff [9]: 0.00038 s⁻¹
kon [9]: 99400 M⁻¹ s⁻¹
koff [10]: 0.000528 s⁻¹
kon [10]: 77900 M⁻¹ s⁻¹
koff [11]: 0.000487 s⁻¹
kon [11]: 77200 M⁻¹ s⁻¹
koff [12]: 0.000406 s⁻¹
kon [12]: 78600 M⁻¹ s⁻¹
Kd [13]: 1.75 nM
Substance: anti-CD16 murine monoclonal antibody A9
